Reference: the RNAGym collection of RNA variant scans (doi:10.1101/gr.219683.116)

B1: mRNA-splicing (parent)
chain: AGUUGCUGCUGGGAGCUCCAGCACAGUGAAAUGGACAGAAGGGCAGAGCAA

Variants of: B1
Experiment: exon inclusion enrichment index; higher = more inclusion; WT1 exon 5 minigene, HEK293

| Variant | exon inclusion enrichment index |
| --- | --- |
| AGUUAGGGAUGCGAGCUCCAGCACAGUGAAAUGGACAGAAGGGCAGAGCAA [G5A C6G U7G C9A G12C] | 0.00529 |
| AGUUGACGACGGGAGCUCCAGCACAGUGAAAUGGACAGAAGGGAUGAGCAA [C6A U7C C9A U10C C44A A45U] | 5.42 |
| AGUCGUUCUCGGGAGCUCCAGCACAGUGAAAUGGACAGAAGGGCAGAGCAA [U4C C6U G8C C9U U10C] | 2.37 |
| AGUUAGGGAUGGGAGCUCCAGCACAGUGAAAUGGACAGAAGGCCAGAGCAA [G5A C6G U7G C9A G43C] | 0.00197 |
| AGUUUCUUUUGGGAGCUCCAGCACAGUGAAAUGGACAGAAGGGCACCGCAA [G5U G8U C9U G46C A47C] | 0.234 |
| AGUUCGCGCCGGGAGCUCCAGCACAGUGAAAUGGACAGAAGGGCAGGCCAA [G5C C6G U7C U10C A47G G48C] | 2.32 |
| AGUUUCUUUUGGGAGCGUCAGCACAGUGAAAUGGACAGAAGGGCAGAGCAA [G5U G8U C9U U17G C18U] | 0.0929 |
| AGUUCGCGCCGGGAGCUGAAGCACAGUGAAAUGGACAGAAGGGCAGAGCAA [G5C C6G U7C U10C C18G C19A] | 4.24 |
| AGUUUCUUUUGGGAGCUCCAGCACAGUGAAAUGGACAGAAGGGCAGCCCAA [G5U G8U C9U A47C G48C] | 0.139 |
| AGUUCGCGCCGGGAGCUCCAGCAUUGUGAAAUGGACAGAAGGGCAGAGCAA [G5C C6G U7C U10C C24U A25U] | 3.01 |
| AGUUCGCGCCGGGAGGUCCAGCACAGUGAAAUGGACAGAAGGGCAGAGCAA [G5C C6G U7C U10C C16G] | 2.97 |
| AGUUACCACCGGGAGCUCCAGCACAGUGAAAUGGACAGCAGGGCAGAGCAA [G5A U7C G8A U10C A39C] | 0.541 |
| AGUUCUUCUGGGGAGCUCCAGCACAGUGAAAUGGACAGAAGGGCAGAGCAA [G5C C6U G8C C9U U10G] | 1.12 |
| AGUUAGGGAUGGGAGCUCCAGCACAGUGACGUGGACAGAAGGGCAGAGCAA [G5A C6G U7G C9A A30C A31G] | 0.00621 |
| AGUUCACACAGGGAGCUCCAGCACCAUGAAAUGGACAGAAGGGCAGAGCAA [G5C C6A U7C G8A U10A A25C G26A] | 0.352 |
| AGUUCGCGCCGGGAGCUCCAGCACAGUAGAAUGGACAGAAGGGCAGAGCAA [G5C C6G U7C U10C G28A A29G] | 2.1 |
| AGUUGACGAGCGGAGCUCCAGCACAGUGAAAUGGACAGAAGGGCAGAGCAA [C6A U7C C9A U10G G11C] | 2.72 |
| AGUUAUAUAUGGGAGCUCCACUACAGUGAAAUGGACAGAAGGGCAGAGCAA [G5A C6U U7A G8U C9A G21C C22U] | 0.0665 |
| AGUUAUAUAUGGGAGCUCCAGCACAGUGAAAUGGACAGAAGGGUAGAGCAA [G5A C6U U7A G8U C9A C44U] | 0.00684 |
| AGUUCUUCUCGGGAGCUCCAGCACAGUGUGAUGGACAGAAGGGCAGAGCAA [G5C C6U G8C C9U U10C A29U A30G] | 2.16 |
| AGUUGACGACGGGAGCUCCAGCACAGUGAAAUUCACAGAAGGGCAGAGCAA [C6A U7C C9A U10C G33U G34C] | 1.4 |
| AGUUACCACCGGGAGCUCCAGCACAGUGAAAUGGACAGAAGGGCAGCACAA [G5A U7C G8A U10C A47C G48A] | 1.74 |
| AGUUUUCUUUGGGAGCUCCAGCACAGUGAAAUGGACAGAAGGGCAGAGCAA [G5U C6U U7C G8U C9U] | 0.154 |
| AGUUCUUCUCGGGAGCUCCAGCACAGUGCAAUGGACAGAAGGGCAGAGCAA [G5C C6U G8C C9U U10C A29C] | 1.75 |
| AGUUAUAUAUGGGAGCCCCAGCACAGUGAAAUGGACAGAAGGGCAGAGCAA [G5A C6U U7A G8U C9A U17C] | 0.0376 |
| AGUUCACACAGGGUCCUCCAGCACAGUGAAAUGGACAGAAGGGCAGAGCAA [G5C C6A U7C G8A U10A A14U G15C] | 0.0301 |

| Variant | exon inclusion enrichment index |
| --- | --- |
| AGUUGCUGCUGGGAGCUCCAGCACACGGAAAUGGACAGAAGGGCAGAGCAA [G26C U27G] | 0.615 |
| AGUUGACGACGGGAGCUCCAGCACAGUUUAAUGGACAGAAGGGCAGAGCAA [C6A U7C C9A U10C G28U A29U] | 1.26 |
| AGUUCACACAGGGAGCUCCAGAUCAGUGAAAUGGACAGAAGGGCAGAGCAA [G5C C6A U7C G8A U10A C22A A23U] | 0.0806 |
| AGUUAUAUAUGGGAGCUCCAGCACAGUGAAAUGGACAGAAGGGGCGAGCAA [G5A C6U U7A G8U C9A C44G A45C] | 0.138 |
| AGUUGACGACGGGAGCUCCAGCACAGUGAAAUGGACAGAAGGGCAGAACAA [C6A U7C C9A U10C G48A] | 3.5 |
| AGUUGACGACGGGAGCUCCAGCACAGUGAAAUGGCAAGAAGGGCAGAGCAA [C6A U7C C9A U10C A35C C36A] | 2.28 |
| AGUUGACGACGGGAGCGUCAGCACAGUGAAAUGGACAGAAGGGCAGAGCAA [C6A U7C C9A U10C U17G C18U] | 1.64 |
| AGCCAGGGAUGGGAGCUCCAGCACAGUGAAAUGGACAGAAGGGCAGAGCAA [U3C U4C G5A C6G U7G C9A] | 0.127 |
| AGUUUCUUUUGGGAGCUCCAGCACAGUGAAAUGGACAGAAGGGACGAGCAA [G5U G8U C9U C44A A45C] | 0.576 |
| AGUUGACGACGGGAGCCGCAGCACAGUGAAAUGGACAGAAGGGCAGAGCAA [C6A U7C C9A U10C U17C C18G] | 3.74 |
| AGUUGAAGAAGGGAGCUCCAGCACAGUGAAAUGGACAGAAGGUAAGAGCAA [C6A U7A C9A U10A G43U C44A] | 0.0263 |
| AGUUUCUUUUGGGAGCUGGAGCACAGUGAAAUGGACAGAAGGGCAGAGCAA [G5U G8U C9U C18G C19G] | 0.195 |
| AGUUGACGACGGGACGUCCAGCACAGUGAAAUGGACAGAAGGGCAGAGCAA [C6A U7C C9A U10C G15C C16G] | 3.44 |
| AGUUCACACAGGGAGCCCCAGCACAGUGAAAUGGACAGAAGGGCAGAGCAA [G5C C6A U7C G8A U10A U17C] | 0.0444 |
| AGUUAGGGAUGGCGGCUCCAGCACAGUGAAAUGGACAGAAGGGCAGAGCAA [G5A C6G U7G C9A G13C A14G] | 0.00374 |
| AGUUCUUCUCGGGAGCUCCAGCACAGUGAAAUGGACUUAAGGGCAGAGCAA [G5C C6U G8C C9U U10C A37U G38U] | 0.446 |
| AGUUAUAUAUGGGAGCUCCAGCACAGUGAAAUGGACAGUAGGGCAGAGCAA [G5A C6U U7A G8U C9A A39U] | 0.0074 |
| AAAUGACGACGGGAGCUCCAGCACAGUGAAAUGGACAGAAGGGCAGAGCAA [G2A U3A C6A U7C C9A U10C] | 2.68 |
| AGUUGCUGCUGGGAGCUCCAGCCUAGUGAAAUGGACAGAAGGGCAGAGCAA [A23C C24U] | 0.256 |
| AGUUAGGGAUGGGAGCUCCAGCACAGUGAAAUGGACAGAAGGGCAGCUCAA [G5A C6G U7G C9A A47C G48U] | 0.00274 |
| AGUUCACACAGGGAGCUCCAGCACAGUGAAAUGGACAGUUGGGCAGAGCAA [G5C C6A U7C G8A U10A A39U A40U] | 0.036 |
| AGUUGAAGAAGGGAGCUCCAGCACAACGAAAUGGACAGAAGGGCAGAGCAA [C6A U7A C9A U10A G26A U27C] | 2.37 |
| AGUUACCACCGGGAGCUCCAGCACAGUGAAAUGGACAGACUGGCAGAGCAA [G5A U7C G8A U10C A40C G41U] | 1.28 |
| AGUACCUUUUGGGAGCUCCAGCACAGUGAAAUGGACAGAAGGGCAGAGCAA [U4A G5C G8U C9U] | 0.718 |
| AGUUAGGGCCGGGAGCUCCAGCACAGUGAAAUGGACAGAAGGGCAGAGCAA [G5A C6G U7G U10C] | 0.0118 |
